Several values for one entry are separate records, joined by “and”; a condition that tells them apart may be missing. Identical values can stand only once.
Settings: Aspergillus oryzae (strain ATCC 42149 / RIB 40), 25 °C, CD, Glycine hydrochloride 0.05 M, reversible: Yes, whole UniProt chain shown

B1: Guanyl-specific ribonuclease T1 wild type, P00651 (protein)
chain: MMYSKLLTLTTLLLPTALALPSLVERACDYTCGSNCYSSSDVSTAQAAGYQLHEDGETVGSNSYPHKYNNYEGFDFSVSSPYYEWPILSSGDVYSGGSPGADRVVFNENNQLAGVITHTGASGNNFVECT
For B1, the denaturant m value (pH 3, Urea) was 1.57 kcal/mol/M and 1.73 kcal/mol/M and 2.04 kcal/mol/M, the “denaturant midpoint (higher = more stable)” value (from here on “denaturant midpoint”) (pH 3, Urea) was 3.8 M and 3.2 M and 3.1 M and the unfolding free energy (pH 3, Urea) was 6.01 kcal/mol and 5.54 kcal/mol and 6.36 kcal/mol. For the same protein, the “denaturant midpoint” value (pH 5.5, GdnHCl) was 4.3 M and 3.7 M, the unfolding free energy (pH 5.5, GdnHCl) was 9.29 kcal/mol and 9.48 kcal/mol and 9.37 kcal/mol and the “denaturant midpoint” value (pH 6, GdnHCl) was 3.8 M and 3.7 M. It also gave an unfolding free energy (pH 6, GdnHCl) of 10.2 kcal/mol.
